Here are results for two substances from PMC9076029.

The Kd is the free concentration of one partner at which half of the binding sites on the other are occupied at equilibrium, for simple one-to-one binding.

For experiment [1], the target named is SARS-CoV-2 spike protein receptor binding domain, wild-type (SARS-CoV-2) (UniProt P0DTC2). The experiment can be described thus: ITC.
For experiment [2] the target is unchanged. Briefly: ITC. The source holds these as a separate data set. Background: In ITC the heat of successive injections is recorded.

Like-named read-outs stand apart in the source and are kept apart here.

Consider “CC12.1 single chain variable fragment (scFv)”, for which the values for the Kd in experiment [1] and in experiment [2] were 23.9 nM and 28 nM, respectively.
With “P2B-2F6 single chain variable fragment (scFv)”, the Kd in experiment [1] was determined as 81.4 nM.
